Changes are numbered by the printed parent chain. Numbers in names are those of the source. One block for each binder: values may come before it.
Tests used:
human CCL17 [1] = biological target: T1, human CCL17 (human, UniProt Q92583 24-94); experiment: cell-based or functional assay
T1 sequence: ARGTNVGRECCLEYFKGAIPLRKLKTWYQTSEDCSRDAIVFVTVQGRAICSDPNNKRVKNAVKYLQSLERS

cyno CCL17 [2] = biological target: T2, cyno CCL17 (Macaca fascicularis (cyno), UniProt Q8HYP9 24-94 (rhesus entry)); experiment: cell-based or functional assay
T2 sequence: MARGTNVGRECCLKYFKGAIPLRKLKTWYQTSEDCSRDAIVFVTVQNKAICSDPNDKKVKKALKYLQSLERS

human CCL17 [3] = biological target: T1, human CCL17; experiment: cell-based or functional assay; remark: listed apart in the source
cyno CCL17 [4] = biological target: T2, cyno CCL17; experiment: cell-based or functional assay; remark: listed apart in the source
cyno CCL22 = biological target: T3, cyno CCL22 (cyno, UniProt O00626 25-93 (human entry), limits assumed); experiment: ELISA, Fab captured by anti-kappa, biotinylated chemokine, streptavidin:HRP
T3 construct: Biotinylated in the Fab ELISA; also called cCCL22; CCCL22
T3 chain: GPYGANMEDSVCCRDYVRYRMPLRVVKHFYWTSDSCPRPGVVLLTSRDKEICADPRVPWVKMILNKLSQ
Description: (§1) Briefly, Maxisorp 96 well plates were coated with 1 μg/ml Goat anti-human Kappa (Southern Biotech). Semi-purified Fab was added to each plate. […] Proteins bound to the captured Fabs were detected using Streptavidin:HRP.

cyno CCL17 [5] = biological target: T2, cyno CCL17; experiment: as above
Description: as §1

human CCL17 [6] = biological target: T1, human CCL17; experiment: MSD-SEA; affinity for human CCL17 against that for cyno CCL17
Description: (§2) Equal volumes of the anti-hCCL17 mAbs at 40 pM or 200 pM were added to each chemokine dilution to obtain mixtures containing the serial dilution of chemokines starting at a final concentration of […] and a constant concentration (20 pM or 100 pM) of anti-CCL17 antibody. The mixtures were prepared in duplicate and incubated at 4° C. for 48 hours to reach equilibrium. The free antibody was detected using a SECTOR Imager 6000 (Meso Scale Discovery) instrument. The resulting binding curves were fitted to obtain the dissociation equilibrium constant (KD) using the GraphPad Prism software (v 5.01) using a 1:1 binding model to perform nonlinear least-square regression analysis of the data.

human CCL17 [7] = biological target: T1, human CCL17; experiment: solution equilibrium affinity (MSD-SEA), IgG1
Description: as §2

cyno CCL17 [8] = biological target: T2, cyno CCL17; experiment: solution equilibrium affinity (MSD-SEA), IgG1
Description: as §2

human CCL17 [9] = biological target: T1, human CCL17; experiment: not stated in the legend (affinities by MSD-SEA in Examples 3 and 4)
human CCL17 [10] = biological target: T1, human CCL17; experiment: solution equilibrium affinity (MSD-SEA), TBST, 48 h at 4 °C
Description: as §2

cyno CCL17 [11] = biological target: T2, cyno CCL17; experiment: as above
Description: as §2

human CCL17 [12] = biological target: T1, human CCL17; experiment: ranking ELISA of Fab variants with bt-human CCL17

IC50 (nM), calcium flux assay in CCRF-CEM cells, 10 ng/ml human CCL17 (human CCL17 [1]): 0.593 nM
IC50 (nM), calcium flux assay in CCRF-CEM cells, 5 ng/ml cyno CCL17 (cyno CCL17 [2]): 0.238 nM
IC50 (nM), β-arrestin assay, Hek293 cells co-expressing CCR4, 20 nM CCL17 (human CCL17 [3]): 13.9 nM
IC50 (nM), β-arrestin assay, Hek293 cells co-expressing CCR4, 20 nM CCL17 (cyno CCL17 [4]): 13.4 nM
B1: C17B302 (antibody, human IgG2, kappa, V domains shown)
VH: EVQLVQSGAEVKKPGESLKISCKGSGYSFTSYWIGWVRQMPGKGLEWMGIIDPSDSDTRYSPSFQGQVTISADKSISTAYLQWSSLKASDTAMYYCARVGPADVWDAFDYWGQGTLVTVSS
VL: DIVMTQSPDSLAVSLGERATINCKSSQSVLLSFDNINKLAWYQQKPGQPPKLLIYDASTRESGVPDRFSGSGSGTDFTLTISSLQAEDVAVYYCQQFYSVPSTFGQGTKVEIKR

IC50 (nM), calcium flux assay in CCRF-CEM cells, 10 ng/ml human CCL17 (human CCL17 [1]): 0.553 nM
IC50 (nM), calcium flux assay in CCRF-CEM cells, 5 ng/ml cyno CCL17 (cyno CCL17 [2]): 0.239 nM
IC50 (nM), β-arrestin assay, Hek293 cells co-expressing CCR4, 20 nM CCL17 (human CCL17 [3]): 10.7 nM
IC50 (nM), β-arrestin assay, Hek293 cells co-expressing CCR4, 20 nM CCL17 (cyno CCL17 [4]): 10.3 nM
B3: C17B311 (antibody, V domains shown)
VH: B1 VH
VL: DIVMTQSPDSLAVSLGERATINCKSSQSVLLSFDNINKLAWYQQKPGQPPKLLIYDASTRESGVPDRFSGSGSGTDFTLTISSLQAEDVAVYYCQQFYSVPSTFGQGTKVEIK

binding result (human CCL17 [12]): binds
B7: C17F319 variant W→R at HCDR3 position 100a (Kabat) (Fab, V domains shown)
VH: B1 VH with W105R, A107S
VL: B3 VL with F33P, D34W, I36S, K38Q, D56G, F97Y, S99L, V100I

binding result (human CCL17 [12]): binds
B10: C17F319 variant W→T at HCDR3 position 100a (Kabat) (Fab, V domains shown)
VH: B1 VH with W105T, A107S
VL: B3 VL with F33P, D34W, I36S, K38Q, D56G, F97Y, S99L, V100I

Further lines, the binder ahead of its results:

B2: F24 (Fab, V domains shown)
VH: B1 VH with A107S
VL: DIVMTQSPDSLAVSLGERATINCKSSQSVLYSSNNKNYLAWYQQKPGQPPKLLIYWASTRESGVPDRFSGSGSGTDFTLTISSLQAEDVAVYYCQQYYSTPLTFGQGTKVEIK
notes: Semi-purified Fab with a His tag at the C-terminus of the heavy chain; also called C17F24
binding result (cyno CCL22): no binding
binding result (cyno CCL17 [5]): binds

B4: C17B262 (antibody, IgG1, V domains shown)
VH: B1 VH with A107S
VL: B3 VL with D56S
notes: Expressed as IgG1; Light chain N50S (Kabat) variant of C17B234
Fold binding human/cyno CCL17 (human CCL17 [6]): 185 fold
Kd (human CCL17 [7]): 0.0003 nM
Kd (cyno CCL17 [8]): 0.0555 nM

B5: C17B264 (antibody, IgG1, V domains shown)
VH: B1 VH with A107S
VL: B3 VL with D56I
notes: Expressed as IgG1; Light chain N50I (Kabat) variant of C17B234
Fold binding human/cyno CCL17 (human CCL17 [6]): 180 fold
Kd (human CCL17 [7]): 0.0004 nM
Kd (cyno CCL17 [8]): 0.0718 nM

B6: C17B234 (antibody, V domains shown)
VH: B1 VH with A107S
VL: B3 VL with D56N
notes: Full IgG1, kappa
Fold binding human/cyno CCL17 (human CCL17 [6]): 115 fold
IC50 (nM), calcium flux assay in CCRF-CEM cells, 10 ng/ml human CCL17 (human CCL17 [1]): 0.421 nM
IC50 (nM), calcium flux assay in CCRF-CEM cells, 5 ng/ml cyno CCL17 (cyno CCL17 [2]): 0.369 nM
Kd (human CCL17 [9]): ≤ 100 nM
Kd (human CCL17 [10]): 0.002 nM
Kd (cyno CCL17 [11]): 0.23 nM
IC50 (nM), β-arrestin assay, Hek293 cells co-expressing CCR4, 20 nM CCL17 (human CCL17 [3]): 8.42 nM
IC50 (nM), β-arrestin assay, Hek293 cells co-expressing CCR4, 20 nM CCL17 (cyno CCL17 [4]): 5.39 nM

B8: C17B236 (antibody, V domains shown)
VH: B1 VH with A107S
VL: B3 VL with F33P, D34W, I36S, K38Q, D56G, F97Y, S99L, V100I
notes: Full IgG1, kappa
Fold binding human/cyno CCL17 (human CCL17 [6]): 7.6 fold
IC50 (nM), calcium flux assay in CCRF-CEM cells, 10 ng/ml human CCL17 (human CCL17 [1]): 0.385 nM
IC50 (nM), calcium flux assay in CCRF-CEM cells, 5 ng/ml cyno CCL17 (cyno CCL17 [2]): 0.349 nM
Kd (human CCL17 [9]): ≤ 100 nM
Kd (human CCL17 [10]): 0.039 nM
Kd (cyno CCL17 [11]): 0.297 nM
IC50 (nM), β-arrestin assay, Hek293 cells co-expressing CCR4, 20 nM CCL17 (human CCL17 [3]): 6.98 nM
IC50 (nM), β-arrestin assay, Hek293 cells co-expressing CCR4, 20 nM CCL17 (cyno CCL17 [4]): 9.5 nM

B9: C17B293 (antibody, IgG1, V domains shown)
VH: B1 VH
VL: B3 VL
notes: Expressed as IgG1; Heavy chain S100cA (Kabat) paired with the light chain of C17B258; also called C17M293
Kd (human CCL17 [9]): ≤ 100 nM
Kd (human CCL17 [7]): < 0.0001 nM
Kd (cyno CCL17 [8]): 0.039 nM

B11: C17B294 (antibody, IgG1, V domains shown)
VH: B1 VH with A107T
VL: B3 VL
notes: Expressed as IgG1; Heavy chain S100cT (Kabat) paired with the light chain of C17B258
Fold binding human/cyno CCL17 (human CCL17 [6]): 22 fold
Kd (human CCL17 [9]): ≤ 100 nM
Kd (human CCL17 [7]): 0.001 nM
Kd (cyno CCL17 [8]): 0.022 nM
